Source: US20200024354A1 (OSSIANIX, published 2020)
Read-outs that look alike come from different tables or passages of the source.

Columns and labels:
[1] = target: T1, recombinant human BAFF-Fc (Sino Biological) (human, UniProt Q9Y275 134-285); experiment: blocking ELISA, VNAR diluted with 1.14 nM BAFF-Fc; binding of BAFF-Fc to coated BAFF-R extracellular domain
T1 construct: Bought reagent; also called hBAFF; not shown: Fc moiety detected by anti-human Fc

[2] = target: T1, recombinant human BAFF-Fc (Sino …); experiment: ELISA, purified monomeric VNAR on coated BAFF-Fc, anti-FLAG detection
APRIL (Sigma) = target: T2, APRIL (Sigma) (UniProt O75888 105-250, limits assumed); experiment: ELISA, periplasmic extract on coated APRIL (1 µg/mL), anti-FLAG-HRP
T2 sequence (looked up): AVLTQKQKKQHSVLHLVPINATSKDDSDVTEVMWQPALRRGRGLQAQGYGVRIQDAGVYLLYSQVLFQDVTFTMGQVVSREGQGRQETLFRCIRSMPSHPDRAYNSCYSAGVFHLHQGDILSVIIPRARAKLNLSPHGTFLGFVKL
Protocol: Clones blocking the interaction between BAFF and its three receptors were tested for their ability to cross-react with BAFF's closest related protein, APRIL. Clones were grown in a 96 well format, periplasmic fraction was extracted by osmotic shock as previously described and directly used in a binding ELISA. Nunc Maxisorp 96 well plates were coated at 1 μg/mL with either BAFF-Fc (Sino Biological), HSA (Sigma), or APRIL (Sigma) and periplasmic fraction, pre-blocked in PBS-0.1% Tween+2.5% Milk, was exposed to the coated surface. After washing in PBS-0.1% Tween, bound VNARs were detected using a peroxidase-conjugated anti-FLAG antibody (Sigma). Absorbance at 450 nm was recorded using an Envision multiwell reader (Perkin Elmer).

[3] = target: T3, human serum albumin (Sigma) (human, UniProt P02768 25-609); experiment: ELISA, periplasmic extract on coated HSA (1 µg/mL), anti-FLAG-HRP
T3 construct: Negative control coat; also called HSA
Protocol: (§1) After selection rounds three and four, 93 individual clones were picked and grown in 96 deep-well plates in auto-induction medium (Novagen). Periplasmic protein was extracted by osmotic shock as described in Müller M R et al. (Generation and isolation of target-specific single-domain antibodies from shark immune repertoires. Methods Mol Biol. 2012; 907:177-94) and directly used in a binding ELISA. Briefly, Nunc Maxisorp 96-well plates were coated at 1 μg/mL with either BAFF-Fc or HSA and periplasmic fraction, pre-blocked in PBS-0.1% Tween+2.5% milk, was exposed to the coated surface. After washing in PBS-0.1% Tween, bound VNARs were detected using a peroxidase-conjugated anti-FLAG antibody (Sigma). Absorbance at 450 nm was recorded using an Envision multiwell reader (Perkin Elmer) and BAFF-specific clones were selected using the criteria: BAFF signal/HSA signal ≥4. The DNA sequence of positive clones was determined by the Sanger chain termination method (GATC biotech), using the specific oligonucleotide 5′-[…]-3′. Protein alignments were performed using the BioEdit software.

[4] = target: T1, recombinant human BAFF-Fc (Sino …); experiment: blocking ELISA, VNAR diluted with 0.5 nM BAFF-Fc; binding of BAFF-Fc to coated TACI
Protocol: (§2) The pre-blocked proteins were then exposed to Nunc Maxisorp 96 well plates which were coated at 1 μg/mL with the recombinant human TACI or BCMA (Peprotech), preblocked in (PBS-0.1% Tween+2.5% Milk). After washing in PBS-0.1% Tween, BAFF bound to its receptor was detected via its Fc moiety using a peroxidase-conjugated anti-human Fc (Sigma). Absorbance at 450 nm was recorded using an Envision multiwell reader (Perkin Elmer) and IC50 values were calculated by fitting the curves (non-linear regression) using GraphPad Prism®. The results are shown in FIG. 15 and the fitted IC50 values are tabulated below.

[5] = target: T1, recombinant human BAFF-Fc (Sino …); experiment: blocking ELISA, binding of BAFF-Fc to coated BR3 (BAFF-R); repeats Table 2
[6] = target: T1, recombinant human BAFF-Fc (Sino …); experiment: blocking ELISA, VNAR diluted with 0.5 nM BAFF-Fc; binding of BAFF-Fc to coated BCMA
Protocol: as §2

[7] = target: T1, recombinant human BAFF-Fc (Sino …); experiment: cell-based or functional assay
[8] = target: T3, human serum albumin (Sigma); experiment: ELISA, periplasmic extract on coated HSA (1 µg/mL), anti-FLAG-HRP; remark: listed apart in the source
[9] = target: recombinant mouse BAFF (R&D Systems) (mouse, UniProt Q9WU72 127-309); experiment: Mouse cross-reactivity grade (binds to both human and mouse BAFF); assay not described
[10] = target: T1, recombinant human BAFF-Fc (Sino …); experiment: ELISA, periplasmic extract on coated BAFF-Fc (1 µg/mL), anti-FLAG-HRP
Protocol: as §1

T3 sequence (P02768 25-609 limits assumed): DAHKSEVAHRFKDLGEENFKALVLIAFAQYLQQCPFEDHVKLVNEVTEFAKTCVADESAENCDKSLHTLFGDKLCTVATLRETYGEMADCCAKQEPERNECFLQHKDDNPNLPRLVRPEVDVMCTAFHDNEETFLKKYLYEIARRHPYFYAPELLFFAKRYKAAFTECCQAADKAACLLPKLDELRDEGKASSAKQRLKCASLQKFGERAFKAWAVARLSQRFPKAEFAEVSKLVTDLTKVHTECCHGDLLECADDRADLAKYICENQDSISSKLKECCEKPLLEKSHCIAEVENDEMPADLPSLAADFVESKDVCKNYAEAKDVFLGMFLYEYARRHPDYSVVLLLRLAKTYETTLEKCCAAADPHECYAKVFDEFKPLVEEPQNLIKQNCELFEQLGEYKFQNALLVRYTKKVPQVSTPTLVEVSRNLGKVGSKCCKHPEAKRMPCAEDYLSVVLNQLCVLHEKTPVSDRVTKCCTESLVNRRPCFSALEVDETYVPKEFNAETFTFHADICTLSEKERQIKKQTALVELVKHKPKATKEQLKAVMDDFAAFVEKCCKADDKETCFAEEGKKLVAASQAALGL
T1 sequence (Q9Y275 134-285): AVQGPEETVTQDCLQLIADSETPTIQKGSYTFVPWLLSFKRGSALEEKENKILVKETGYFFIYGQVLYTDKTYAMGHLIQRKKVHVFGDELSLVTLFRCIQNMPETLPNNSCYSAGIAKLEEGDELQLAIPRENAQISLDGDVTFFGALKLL
Chain of recombinant mouse BAFF (R&D Systems) (Q9WU72 127-309 limits assumed): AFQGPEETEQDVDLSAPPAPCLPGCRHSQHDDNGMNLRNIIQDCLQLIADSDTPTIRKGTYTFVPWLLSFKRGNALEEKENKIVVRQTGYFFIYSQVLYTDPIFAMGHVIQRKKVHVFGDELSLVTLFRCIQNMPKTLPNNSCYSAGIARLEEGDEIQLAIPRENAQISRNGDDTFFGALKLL

B1: ID2-101A07 (VNAR)
VNAR: AARVDQTPQTITKETGESLTINCVLRDSNCALSNLYWYRKKSGSTNEESISLGGRYVETVNSGSKSFSLRINDLTVEDSGTYRCKVQLPYDPLTKECILGRMDVYGDGTAVTVNA
notes: Nurse shark VNAR single domain, tested as monomer
[1]
  IC50: 6.8 nM
[2]
  EC50: 0.5 nM
APRIL (Sigma)
  binding result: no binding
[3]
  binding result: no binding
[4]
  IC50: 82.7 nM
[5]
  IC50: 6.8 nM
[6]
  IC50: 24.5 nM
[7]
  CELLULAR IC50: 58 nM

B2: ID2-101B07 (VNAR)
VNAR: AARVDQTPRSVTKETGESLTINCVLRDSICALSSTHWYRKKSGSTNEESISKGGRYVETVNSGSKSFSLRINDLTVEDSGTYRCKVHGGRSTGLCGDVLLAGDVYGGGTAVTVNA
notes: Nurse shark VNAR single domain, monomer
[1]
  IC50: 6.8 nM
[2]
  EC50: 0.8 nM
[4]
  IC50: 24 nM
[5]
  IC50: 6.8 nM
[6]
  IC50: 18.9 nM
[8]
  binding result: no binding
[7]
  CELLULAR IC50: 60 nM

B3: ID2-101A05 (VNAR)
VNAR: AARVDQTPQTITKETGESLTINCVLRDNNCALSTTYWYRKKSGSTNEENISKGGRYVETVNSGSKSFSLRINDLTVEDSGTYRCKVSKDWLLCRDRGRRETDVYGDGTAVTVNA
notes: as for B1
[1]
  IC50: 13.8 nM
[2]
  EC50: 1.5 nM
APRIL (Sigma)
  binding result: no binding
[3]
  binding result: no binding
[4]
  IC50: 57.8 nM
[5]
  IC50: 13.8 nM
[6]
  IC50: 17.4 nM
[7]
  CELLULAR IC50: 135 nM
[9]
  binding result: binds

B4: ID2-101A09 (VNAR)
VNAR: AARVDQTPQTITKETGESLTINCVLRDNNCALSTTYWYRKKSGSTNEESISKGGRYVETVNSGSKSFSLRINDLTVEDSGTYRCKVREDPLMCRYYLDRYRDVYGGGTVVTVNA
notes: as for B2
[1]
  IC50: 9.7 nM
[2]
  EC50: 4.9 nM
APRIL (Sigma)
  binding result: no binding
[4]
  IC50: 27.2 nM
[5]
  IC50: 9.7 nM
[6]
  IC50: 23.6 nM
[8]
  binding result: no binding
[7]
  CELLULAR IC50: 215 nM
[9]
  binding result: binds

B5: ID2-101B10 (VNAR)
VNAR: AARVDQTPQTITKETGESLTINCVLRDSNCALSSTYWYRKKSGSTNEESISKGGRYVETVNSGSKSFSLRINDLTVEDSGTYRCKVRIDPLLCNASYVKWDDVYGGGTVVTVNA
notes: as for B2
[1]
  IC50: 2.8 nM
[2]
  EC50: 1 nM
APRIL (Sigma)
  binding result: no binding
[3]
  binding result: no binding
[4]
  IC50: 14.1 nM
[5]
  IC50: 2.8 nM
[6]
  IC50: 10.5 nM
[7]
  CELLULAR IC50: ~100 nM
[9]
  binding result: binds

B6: ID2-101C01 (VNAR)
VNAR: AARVDQTPQTITKETGESLTINCVLRDNNCALSTTYWYRKKSGSTNEENISKGGRYVETVNSGSKSFSLRINDLTVEDSGTYRCKVRLDLLLCRNGSTNSIDVYGGGTAVTVNA
notes: as for B2
[1]
  IC50: 3.85 nM
[2]
  EC50: 2.13 nM
[3]
  binding result: no binding

B7: ID2-101B03 (VNAR)
VNAR: AARVDQTPRSVTKETGESLTINCVLRDNNCALSTTYWYRKKSGSTNEENISKGGRYVETVNSGSKSFSLRINDLTVEDSGTYRCKVKPDLLFCSSSGLGLIQDVYGGGTAVTVNA
notes: Nurse shark VNAR single domain, monomer in periplasmic extract
[10]
  binding result: binds

B8: ID2-101C02 (VNAR)
VNAR: AARVDQTPQTITKETGESLTINCVLRDNNCALSTTYWYRKKSGSTNEENISKGGRYVETVNSGSKSFSLKINDLTVKDSGTYRCKVTRDPLFCSYRASKRHDVYGGGTVVTVNA
notes: as for B7
[10]
  binding result: binds

B9: ID2-101C03 (VNAR)
chain: AQAAARVDQTPRSVTKETGESLTINCVLRDSICALSSTHWYRKKSGSTNEESISLGGRYVETVNSGSKSFSLKINDLTVEDSGTYRCKVTRYVVFSGSTCRMRRADVYGGGTVVTMNAASGAHHHHHHGADYKDDDDK
notes: as for B7
[10]
  binding result: binds

B10: ID2-101A01 (VNAR)
VNAR: AARVDQTPQTITKETGESLTINCVLRDSNCALSNLYWYRKKSGSTNEESISLGGRYVETVNSGSKSFSLRINDLTVEDSGTYRCKVRRARVIGGEYCRVQWQDVYGGGTAVTVNA
notes: as for B7
[10]
  binding result: binds

B11: ID2-101B11 (VNAR)
VNAR: AARVDQTPRSVTKETGESLTINCVLRDSNCALSSTYWYRKKSGSTNEENISKGGRYVETVNSGSKSFSLRINDLTVEDSGTYRCKVMLDPLLCPALLESMTDVYGGGTAVTVNA
notes: as for B2
[1]
  IC50: 6.85 nM
[2]
  EC50: 2.49 nM
APRIL (Sigma)
  binding result: no binding
[3]
  binding result: no binding

B12: ID2-101B01 (VNAR)
VNAR: AARVDQTPQTITKETGESLTINCVLRDSNCALSSTYWYRKKSGSTNEESISKGGRYVETVNSGSKSFSLRINDLTVEDSGTYRCNVAPTIISGCSIKRRDVYGGGTAVTVNA
notes: as for B2
[1]
  IC50: 91.2 nM
[2]
  EC50: 7.4 nM
[3]
  binding result: no binding

B13: ID2-101B05 (VNAR)
VNAR: AARVDQTPRSVTKETGESLTINCVLRDSICALSSTHWYRKKSGSTNEESISKGGRYVETVNSGSKSFSLRINDLTVEDSGTYRCKVNHDLLTSSRRCQSQIKDVYGGGTVVTVNA
notes: as for B2
[1]
  IC50: 148 nM
[2]
  EC50: 11.8 nM
APRIL (Sigma)
  binding result: no binding
[3]
  binding result: no binding

B14: ID2-101B12 (VNAR)
VNAR: AARVDQTPQTITKETGESLTINCVLRDSNCALSSTYWYRKKSGSTNEESISKGGRYVETVNSGSKSFSLRINDLTVEDSGTYRCKVFIDPLLCSRDALGFSDVYGDGTAVTVNA
notes: as for B2
[1]
  IC50: 9.32 nM
[2]
  EC50: 2.7 nM
APRIL (Sigma)
  binding result: no binding
[3]
  binding result: no binding

B15: ID2-101A03 (VNAR)
VNAR: AARVDQTPQTITKETGESLTINCVLRDNNCALSTTYWYRKKSGSTNEENISKGGRYVETVNSGSKSFSLKINDLTVEDSGTYRCKVRVDRLLCGWRVGRRQLGDVYGGGTVVTVNA
notes: as for B2
[1]
  IC50: 12.3 nM
[2]
  EC50: 17.2 nM
APRIL (Sigma)
  binding result: no binding
[3]
  binding result: no binding

B16: ID2-101A12 (VNAR)
VNAR: AARVDQTPQTVTKETGESLTINCVLRDASYALGSTCWYRKKSGSRNEESISKGGRYVETVNSGSKSFSLRINDLTVEDSGTYRCKVRDPLLFPRDRCDGESKDVYGGGTVVTVNA
notes: as for B2
[1]
  IC50: 49.2 nM
[2]
  EC50: 4.57 nM
[8]
  binding result: no binding
